Tests used:
[1] = target: T1, LRRK2(G2019S) (Homo sapiens, UniProt Q5S007, G2019S/M2397T/R50H); test: In cellulo phospho-Rab / LRRK2 autophosphorylation assay in HEK293T cells; format: cell-based; set-up: key to Functional Group (see FIG. 2d): Group 1: group 1: Nbs that inhibit both LRRK2 autophosphorylation and Rab10 phosphorylation in cells; Group 2: group 2: Nbs that inhibit only Rab10 phosphorylation; Group 3: group 3: Nbs that activate LRRK2 kinase activity; Group 4: group 4: Nbs that have no consistent/clear effect on LRRK2 kinase activity; conditions: for influence on LRRK2 kinase activity compared to the controls / LRRK2 autophosphorylation at position S1292 / Rab10 phosphorylation at position T72: HEK 293T cells co-expressing LRRK2(G2019S), Rab29 and Nb-GFP; for influence on LRRK2 kinase activity compared to the controls: Western blot; for Functional Group (see FIG. 2d): classification by effect on in cellulo LRRK2(G2019S) kinase activity; for Rab10 phosphorylation at position T72: endogenous Rab10
T1 construct: SF tag (FLAG + Twin-Strep); expressed in transfected cells; host or cells: HEK 293T
Description: (FIGS. 2A-2C) LRRK2(G2019S) and its effector Rab29 were overexpressed together with GFP-fused Nbs (“Fluobody”) in HEK293T cells. A negative control, where no Nb is overexpressed (“No Nb”) is also included. […] In rows labeled “pLRRK2”, LRRK2 pS1292 levels are determined by Western Blot using a site-specific anti-pLRRK2(pS1292) antibody (Abcam, ab203181) (shown at different times of development). In the rows labeled “pRAB10”, endogenous pT72-Rab10 levels are determined by Western Blot using the MJFF/Abcam antibody MJF-R21 (Abcam, ab230261) (shown at different times of development). The three lower rows contain controls of LRRK2 (rat anti-LRRK2, 24D8), Fluobody (rat anti-GFP) and Rab10 (rabbit anti-Rab10) expression levels. (FIG. 2D) Based on the results of panels (FIGS. 2A-2C) the Nbs can be divided into 4 functional groups, with group 1: Nbs that inhibit both LRRK2 autophosphorylation and Rab10 phosphorylation in cells; group 2: Nbs that inhibit only Rab10 phosphorylation; group 3: Nbs that activate LRRK2 kinase activity; group 4: Nbs that have no consistent/clear effect on LRRK2 kinase activity.
To assess the influence of the Nbs on LRRK2 kinase activity we monitored two physiologically and disease relevant activities of LRRK2: phosphorylation of the endogenous substrate Rab10 at position T72 and LRRK2 autophosphorylation at position S1292 [25-30]. […] In our cellular assay we thus co-expressed LRRK2(G2019S), Rab29 and the different Nb-GFP fusions in HEK 293T cells (FIG. 2a-c).
HEK 293T cells were cultured in DMEM (supplemented with 10% Fetal Bovine Serum, […] L-Glutamine and 0.5% Pen/Strep). For the assay, the cells were seeded onto six-well plates and transfected at a confluency of 50-70% with the individual Nb-GFP expression constructs, SF-tagged LRRK2(G2019S) and FLAG-HA Rab29 using a self-made polyethylenimine (PEI)-based transfection reagent. After 48 hrs cells were lysed in lysis buffer [30 mM Tris-HCL (pH7.4), 150 mM NaCl, 0.5% Nonident-P40, complete protease inhibitor cocktail, phosphatase inhibitor cocktail II & III (all Sigma)]. Lysates were cleared by centrifugation at 10,000×g and adjusted to a protein concentration of 1 μg/μl in 1× Laemmli Buffer. Samples were subsequently subjected to SDS PAGE and Western Blot analysis to determine LRRK2 pS1292 and Rab10 T72 phosphorylation levels, as described below. Total LRRK2 and Rab10 levels were determined as a reference.
For western blot analysis, protein samples were separated by SDS-PAGE using NuPAGE 10% Bis-Tris gels (Invitrogen) and transferred onto PVDF membranes (Thermo Fisher). To allow simultaneous probing for LRRK2 on the one hand and Rab and the Nb-GFP fusions on the other hand, membranes were cut horizontally at the 140 kDa MW marker band. After blocking non-specific binding sites with 5% non-fat dry milk in TBST (1 h, RT) (25 mM Tris, pH 7.4, 150 mM NaCl, 0.1% Tween-20), membranes were incubated overnight at 4° C. with primary antibodies at dilutions specified below. Phospho-specific antibodies were diluted in TBST/5% BSA (Roth GmbH). Non-phospho-specific antibodies were diluted in TBST/5% non-fat dry milk powder (BioRad). Phospho-Rab10 levels were determined by the site-specific rabbit monoclonal antibody anti-pRAB10([…]) (Abcam, ab230261) and LRRK2 autophosphorylation was determined by the site-specific rabbit monoclonal antibody anti-pLRRK2(pS1292) (Abcam, ab203181), both at a dilution of 1:2,000. Total LRRK2 levels were determined by the in-house rat monoclonal antibody anti-pan-LRRK2 (clone 24D8; 1:10,000). Total Rab10 levels were determined by the rabbit monoclonal antibody anti-RAB10/ERP13424 (Abcam, ab181367) at a dilution of 1:5,000. Nb-GFP fusion proteins were detected using the rat monoclonal antibody anti-GFP (clone 3H9, ChromoTec) at a dilution of 1:2,000. For detection, goat anti-rat IgG or anti-rabbit IgG HRP-coupled secondary antibodies (Jackson ImmunoResearch) were used at a dilution of 1:15,000 in TBST/5% non-fat dry milk powder. […]

[2] = target: T2, endogenous LRRK2 (Mus musculus, UniProt Q5S006); test: Colocalization of GFP-Nbs with endogenous LRRK2 on zymosan-containing phagosomes in RAW264.7 cells; format: cell-based; conditions: RAW264.7 cells transfected with GFP-Nbs, zymosan 30 mins, fixed cells
T2 construct: endogenous in cells; host or cells: RAW264.7
Description: RAW264.7 cells were transfected with GFP-fused Nbs and treated with Zymosan for 30 mins. Recruitment of LRRK2 and Nbs to the phagosomes was analyzed by immunofluorescence. FIG. 16A, images for Nb38, Nb22, Nb23, Nb40, No Nb, or Irrelevant (IRR) Nb treatments; FIG. 16B, images for Nb36, Nb42, Nb17, Nb39, Nb1, and Nb6 treatments. Scale bar=10 μm.
To test whether Nbs can trace and visualize endogenous LRRK2 in fixed cells, we generated green fluorescent protein (GFP)-Nb fusions (fluobodies) as described before. Recently, it was shown that LRRK2 is recruited to phagosomes upon induction of phagocytosis in immune cells. Therefore, RAW264.7 cells were transfected with these fluobodies and treated with killed yeast bioparticles “zymosan” to induce phagocytosis.
RAW264.7 cells (ATCC® SC-6003™) were transfected with peGFP-Nb constructs using JetOPTIMUS (Polyplus transfection) for 24 hrs and then stimulated with Zymosan particles (Sigma Aldrich) for 30 mins ([…]). Immunostaining for LRRK2 was performed as reported before. Briefly, cells fixed with 4% (w/v) paraformaldehyde for 30 min, followed by treatment with 100% EtOH at −20° C. Sampled were permeabilized with PBS/0.5% Triton X-100 and blocked with 3% BSA. Primary antibodies (rabbit anti-LRRK2, c41-2, Abcam and mouse anti-GFP, G6539, Sigma Aldrich) were diluted in PBS containing 3% BSA and 0.5% Triton X-100 and incubated overnight at 4° C. After three 5-min washes with PBS, secondary fluorescently labeled antibodies (anti-rabbit-Alexa fluor 568 and anti-mouse-Alexa fluor 488, Invitrogen) were added in a similar manner to primary antibodies and incubated for 1 hour at room temperature. Cells were washed twice with 1×PBS and mounted with Fluroshield antifade reagent with DAPI (SigmaAldrich). Images were acquired on Zeiss LSM800 confocal laser scanning microscope. Image analysis of z-scan was done using the Zeiss microscope software ZEN.

T1 sequence (Q5S007 whole entry R50H/G2019S/M2397T): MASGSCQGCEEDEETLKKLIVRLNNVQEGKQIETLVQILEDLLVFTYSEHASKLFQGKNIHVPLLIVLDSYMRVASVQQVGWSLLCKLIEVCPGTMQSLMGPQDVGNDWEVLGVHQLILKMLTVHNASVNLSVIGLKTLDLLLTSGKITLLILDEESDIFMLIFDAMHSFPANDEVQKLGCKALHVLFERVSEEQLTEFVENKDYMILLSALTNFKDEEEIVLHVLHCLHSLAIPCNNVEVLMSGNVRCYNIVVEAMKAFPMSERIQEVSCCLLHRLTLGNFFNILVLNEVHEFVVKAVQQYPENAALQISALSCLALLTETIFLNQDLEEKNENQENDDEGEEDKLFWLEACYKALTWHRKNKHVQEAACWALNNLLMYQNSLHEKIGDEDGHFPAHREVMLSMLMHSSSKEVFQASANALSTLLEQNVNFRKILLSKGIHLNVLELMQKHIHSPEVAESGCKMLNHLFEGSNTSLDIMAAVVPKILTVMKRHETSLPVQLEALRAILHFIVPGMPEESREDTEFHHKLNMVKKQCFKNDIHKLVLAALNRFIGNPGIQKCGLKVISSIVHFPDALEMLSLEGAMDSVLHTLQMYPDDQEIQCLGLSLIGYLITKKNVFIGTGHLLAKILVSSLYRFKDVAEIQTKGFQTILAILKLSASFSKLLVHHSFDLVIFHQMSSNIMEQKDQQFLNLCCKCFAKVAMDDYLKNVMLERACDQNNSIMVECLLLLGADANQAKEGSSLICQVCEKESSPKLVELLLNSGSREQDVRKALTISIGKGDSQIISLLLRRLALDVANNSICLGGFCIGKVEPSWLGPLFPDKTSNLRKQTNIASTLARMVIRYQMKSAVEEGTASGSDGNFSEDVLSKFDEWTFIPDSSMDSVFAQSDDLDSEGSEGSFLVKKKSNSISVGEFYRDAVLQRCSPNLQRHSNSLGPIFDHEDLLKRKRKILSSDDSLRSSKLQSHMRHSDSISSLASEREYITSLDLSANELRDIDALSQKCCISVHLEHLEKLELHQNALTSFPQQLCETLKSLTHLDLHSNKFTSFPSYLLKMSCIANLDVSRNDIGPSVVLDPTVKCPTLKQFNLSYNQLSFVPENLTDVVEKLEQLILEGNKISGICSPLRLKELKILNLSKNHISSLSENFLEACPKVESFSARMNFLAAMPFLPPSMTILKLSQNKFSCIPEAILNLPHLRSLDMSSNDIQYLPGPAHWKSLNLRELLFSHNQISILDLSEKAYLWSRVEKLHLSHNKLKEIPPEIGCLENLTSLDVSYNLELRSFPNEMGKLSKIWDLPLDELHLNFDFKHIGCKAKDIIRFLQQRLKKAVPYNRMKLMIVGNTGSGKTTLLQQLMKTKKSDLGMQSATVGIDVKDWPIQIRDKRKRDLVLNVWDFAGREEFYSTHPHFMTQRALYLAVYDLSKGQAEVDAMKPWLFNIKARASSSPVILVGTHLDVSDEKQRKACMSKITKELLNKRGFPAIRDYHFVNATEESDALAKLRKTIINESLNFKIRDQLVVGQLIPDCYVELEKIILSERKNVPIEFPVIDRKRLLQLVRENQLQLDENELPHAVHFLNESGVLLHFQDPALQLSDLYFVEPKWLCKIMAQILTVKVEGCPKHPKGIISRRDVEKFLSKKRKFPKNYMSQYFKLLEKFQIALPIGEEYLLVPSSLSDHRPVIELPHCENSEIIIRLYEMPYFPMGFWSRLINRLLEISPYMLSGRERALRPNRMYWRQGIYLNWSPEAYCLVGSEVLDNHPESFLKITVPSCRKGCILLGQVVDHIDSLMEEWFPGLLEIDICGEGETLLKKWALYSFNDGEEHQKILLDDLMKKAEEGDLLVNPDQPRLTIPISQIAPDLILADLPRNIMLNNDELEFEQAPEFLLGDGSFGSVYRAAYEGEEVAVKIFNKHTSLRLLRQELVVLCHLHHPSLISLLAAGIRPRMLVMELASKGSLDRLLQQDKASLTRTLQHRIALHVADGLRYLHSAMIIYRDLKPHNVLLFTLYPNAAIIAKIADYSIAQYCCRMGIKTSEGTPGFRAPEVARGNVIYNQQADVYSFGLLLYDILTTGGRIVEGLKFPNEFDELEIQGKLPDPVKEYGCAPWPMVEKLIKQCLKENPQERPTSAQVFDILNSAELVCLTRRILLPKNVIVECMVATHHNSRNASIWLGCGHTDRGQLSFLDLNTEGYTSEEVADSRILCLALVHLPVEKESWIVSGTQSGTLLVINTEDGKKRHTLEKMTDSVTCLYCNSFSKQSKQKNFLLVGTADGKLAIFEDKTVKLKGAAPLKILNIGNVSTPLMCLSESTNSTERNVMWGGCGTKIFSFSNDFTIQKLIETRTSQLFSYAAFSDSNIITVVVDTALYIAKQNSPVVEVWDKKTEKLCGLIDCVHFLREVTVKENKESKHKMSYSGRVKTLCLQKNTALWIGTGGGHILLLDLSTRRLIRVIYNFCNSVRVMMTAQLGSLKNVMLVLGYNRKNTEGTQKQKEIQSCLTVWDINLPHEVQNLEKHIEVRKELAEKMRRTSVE
T2 sequence (Q5S006 whole entry): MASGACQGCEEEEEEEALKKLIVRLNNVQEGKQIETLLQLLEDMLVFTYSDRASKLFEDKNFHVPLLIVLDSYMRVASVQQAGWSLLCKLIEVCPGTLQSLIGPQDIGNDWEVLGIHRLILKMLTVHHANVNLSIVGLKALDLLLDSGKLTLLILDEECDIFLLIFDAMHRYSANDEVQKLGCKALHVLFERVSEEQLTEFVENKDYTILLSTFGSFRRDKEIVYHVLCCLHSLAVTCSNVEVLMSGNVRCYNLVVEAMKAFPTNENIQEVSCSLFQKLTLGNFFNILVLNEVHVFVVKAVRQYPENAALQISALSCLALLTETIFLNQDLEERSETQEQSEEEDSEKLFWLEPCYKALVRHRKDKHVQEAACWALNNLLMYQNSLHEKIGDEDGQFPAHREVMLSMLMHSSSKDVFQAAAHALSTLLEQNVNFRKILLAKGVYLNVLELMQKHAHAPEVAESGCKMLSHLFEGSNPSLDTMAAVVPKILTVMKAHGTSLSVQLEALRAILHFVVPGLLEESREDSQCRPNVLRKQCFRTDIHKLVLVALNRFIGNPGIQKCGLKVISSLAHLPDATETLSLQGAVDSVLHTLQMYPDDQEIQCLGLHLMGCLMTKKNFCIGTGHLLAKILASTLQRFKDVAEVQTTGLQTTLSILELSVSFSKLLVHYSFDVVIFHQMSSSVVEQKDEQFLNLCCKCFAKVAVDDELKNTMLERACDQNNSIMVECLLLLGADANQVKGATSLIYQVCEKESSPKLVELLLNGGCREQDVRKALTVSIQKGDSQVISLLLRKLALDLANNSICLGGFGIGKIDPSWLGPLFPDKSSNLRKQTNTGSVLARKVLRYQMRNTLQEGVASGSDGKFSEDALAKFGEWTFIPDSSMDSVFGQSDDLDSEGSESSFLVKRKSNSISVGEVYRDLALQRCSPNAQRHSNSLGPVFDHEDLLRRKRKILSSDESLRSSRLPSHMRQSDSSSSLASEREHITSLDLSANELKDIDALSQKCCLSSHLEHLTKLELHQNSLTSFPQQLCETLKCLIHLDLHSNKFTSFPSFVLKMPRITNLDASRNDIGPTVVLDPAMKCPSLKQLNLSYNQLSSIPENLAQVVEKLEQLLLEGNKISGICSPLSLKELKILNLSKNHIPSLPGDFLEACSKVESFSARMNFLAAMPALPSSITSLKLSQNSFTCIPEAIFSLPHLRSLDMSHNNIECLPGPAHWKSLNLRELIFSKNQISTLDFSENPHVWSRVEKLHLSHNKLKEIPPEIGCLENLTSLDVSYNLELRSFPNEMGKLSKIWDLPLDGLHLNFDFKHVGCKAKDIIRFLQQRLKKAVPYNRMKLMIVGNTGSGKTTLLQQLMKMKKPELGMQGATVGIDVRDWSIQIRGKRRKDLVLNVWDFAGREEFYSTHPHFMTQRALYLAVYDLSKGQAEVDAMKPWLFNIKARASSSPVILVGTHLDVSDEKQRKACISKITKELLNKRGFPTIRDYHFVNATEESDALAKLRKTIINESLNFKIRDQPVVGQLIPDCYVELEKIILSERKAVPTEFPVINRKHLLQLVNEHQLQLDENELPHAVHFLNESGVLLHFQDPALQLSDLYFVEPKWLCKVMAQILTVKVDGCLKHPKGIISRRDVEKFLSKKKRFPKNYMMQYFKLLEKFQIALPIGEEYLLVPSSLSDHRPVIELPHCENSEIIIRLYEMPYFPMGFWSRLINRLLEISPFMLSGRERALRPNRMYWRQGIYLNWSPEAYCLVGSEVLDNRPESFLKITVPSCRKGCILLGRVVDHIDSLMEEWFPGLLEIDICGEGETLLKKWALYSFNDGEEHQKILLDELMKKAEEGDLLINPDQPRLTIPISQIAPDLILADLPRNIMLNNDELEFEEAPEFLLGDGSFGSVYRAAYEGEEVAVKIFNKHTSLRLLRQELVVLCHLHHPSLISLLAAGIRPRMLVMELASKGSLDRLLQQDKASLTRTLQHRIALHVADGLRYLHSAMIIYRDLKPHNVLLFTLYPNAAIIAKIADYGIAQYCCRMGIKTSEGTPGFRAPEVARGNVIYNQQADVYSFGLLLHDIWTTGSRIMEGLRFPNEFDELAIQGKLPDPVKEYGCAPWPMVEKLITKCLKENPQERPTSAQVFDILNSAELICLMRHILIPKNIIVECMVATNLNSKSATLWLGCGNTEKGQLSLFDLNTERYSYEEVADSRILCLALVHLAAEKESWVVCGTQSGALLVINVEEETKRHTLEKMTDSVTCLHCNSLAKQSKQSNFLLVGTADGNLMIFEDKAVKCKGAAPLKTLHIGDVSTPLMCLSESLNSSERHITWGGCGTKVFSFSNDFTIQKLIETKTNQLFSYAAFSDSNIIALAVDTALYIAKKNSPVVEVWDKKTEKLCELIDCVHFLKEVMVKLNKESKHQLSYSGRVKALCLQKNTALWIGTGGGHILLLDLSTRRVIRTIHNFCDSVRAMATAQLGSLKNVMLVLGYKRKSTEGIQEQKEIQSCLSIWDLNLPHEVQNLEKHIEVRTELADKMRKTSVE

| Functional Group (see FIG. 2d) [1] | Rab10 phosphorylation at position T72 [1] | Molecule | influence on LRRK2 kinase activity compared to the controls [1] | colocalization with endogenous LRRK2 on phagosomes [2] | LRRK2 autophosphorylation at position S1292 [1] |
| --- | --- | --- | --- | --- | --- |
| Group 4 | – | Nb39: LRRK2-specific Nanobody, SEQ ID NO: 10 (protein, Nanobody CA14134) VHH: MAQVQLVESGGGLVQAGGSLRLSCRASGGTFSTYAMGWFRQVPGKERETVAAVKWSGDMTYYADSVKGRFTISRDNAKNTVYLQMNSLRPEDTAVYYCAARRGLSYYRGPSEYDYWGQGTQVTVSS | no influence on LRRK2 kinase activity | LRRK2 recruitment to phagosomes was slightly detectable | – |
| Group 2 | inhibit Rab10 phosphorylation | Nb36: LRRK2-specific Nanobody, SEQ ID NO: 7 (protein, Nanobody CA14130) VHH: MAQVQLVESGGGLVQPGGSLRLSCAASGSIRSITTSAWFRQPPGKQRELVAGISSGTSTNYADSVKGRFTISRDNAKNTVYLQMNSLKPEDTAVYYCHVWISGTWYSGQGTQVTVSS | strongly decreased LRRK2 autophosphorylation and/or Rab10 phosphorylation | did not colocalize with endogenous LRRK2 | inhibiting S1292 phosphorylation at a lesser extent |
| Group 2 | inhibit Rab10 phosphorylation | Nb38: LRRK2-specific Nanobody, SEQ ID NO: 8 (protein, Nanobody CA14133) VHH: MAQVQLVESGGGLVQPGGSLRLSCAASGSIRSIATSAWYRQPPGKQRELVAGISSGTTTNYADSVKGRFTISRDNAKNTVYLQMNSLKPEDTAVYYCHAWISGTWISGQGTQVTVSS | strongly decreased LRRK2 autophosphorylation and/or Rab10 phosphorylation | clearly colocalized with LRRK2 on zymosan-containing phagosomes | inhibiting S1292 phosphorylation at a lesser extent |
